# Assay results published in US20210230279A1 (University of California, published 2021).
# Assays:
# [1] = target: T1, recombinant human integrin αvβ1 (human, UniProt P05556 21-728); assay: ELISA on coated recombinant human integrin; 0 = no apparent binding
# T1 construct: Bought; also called αvβ1 (R&D systems)
# From the text: (§1) Binding was quantified by intensity as 0-4 (0 representing no apparent binding; 4 representing robust binding) and results normalized to expression.
# [2] = target: T2, recombinant human integrin αvβ3 (human, UniProt P05106 27-718); assay: as above
# T2 construct: Bought; also called αvβ3 (R&D systems)
# From the text: as §1
# [3] = target: T3, recombinant human integrin αvβ8 (human, UniProt P06756 31-992; P26012 43-684); assay: as above
# T3 construct: also called Human Integrin alpha V beta 8; purified recombinant αvβ8
# From the text: as §1
# [4] = target: T4, recombinant human integrin αvβ5 (human, UniProt P18084 24-719); assay: as above
# T4 construct: Bought; also called αvβ5 (R&D systems)
# From the text: as §1
# [5] = target: T5, recombinant human integrin αvβ6 (human, UniProt P18564 22-707); assay: ELISA: integrin coated on plate, supernatant of transfected 293 cells at 1/10 dilution, anti-mouse IgG-HRP; score normalized to expression;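 also: scale runs from 0 (no apparent binding) to 4 (robust binding), with scores adjusted for clone protein expression as determined by a murine IgG ELISA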
# T5 construct: also called αvβ6 (R&D systems); αvβ6 receptor
# From the text: as §1
# [6] = target: T2, recombinant human integrin αvβ3; assay: as above
# From the text: as §1
# [7] = target: T3, recombinant human integrin αvβ8; assay: as above
# From the text: as §1
# [8] = target: T3, recombinant human integrin αvβ8; assay: scFv yeast display selection
# T5 sequence (chain, as listed by the source limits assumed, chain 1 of 2): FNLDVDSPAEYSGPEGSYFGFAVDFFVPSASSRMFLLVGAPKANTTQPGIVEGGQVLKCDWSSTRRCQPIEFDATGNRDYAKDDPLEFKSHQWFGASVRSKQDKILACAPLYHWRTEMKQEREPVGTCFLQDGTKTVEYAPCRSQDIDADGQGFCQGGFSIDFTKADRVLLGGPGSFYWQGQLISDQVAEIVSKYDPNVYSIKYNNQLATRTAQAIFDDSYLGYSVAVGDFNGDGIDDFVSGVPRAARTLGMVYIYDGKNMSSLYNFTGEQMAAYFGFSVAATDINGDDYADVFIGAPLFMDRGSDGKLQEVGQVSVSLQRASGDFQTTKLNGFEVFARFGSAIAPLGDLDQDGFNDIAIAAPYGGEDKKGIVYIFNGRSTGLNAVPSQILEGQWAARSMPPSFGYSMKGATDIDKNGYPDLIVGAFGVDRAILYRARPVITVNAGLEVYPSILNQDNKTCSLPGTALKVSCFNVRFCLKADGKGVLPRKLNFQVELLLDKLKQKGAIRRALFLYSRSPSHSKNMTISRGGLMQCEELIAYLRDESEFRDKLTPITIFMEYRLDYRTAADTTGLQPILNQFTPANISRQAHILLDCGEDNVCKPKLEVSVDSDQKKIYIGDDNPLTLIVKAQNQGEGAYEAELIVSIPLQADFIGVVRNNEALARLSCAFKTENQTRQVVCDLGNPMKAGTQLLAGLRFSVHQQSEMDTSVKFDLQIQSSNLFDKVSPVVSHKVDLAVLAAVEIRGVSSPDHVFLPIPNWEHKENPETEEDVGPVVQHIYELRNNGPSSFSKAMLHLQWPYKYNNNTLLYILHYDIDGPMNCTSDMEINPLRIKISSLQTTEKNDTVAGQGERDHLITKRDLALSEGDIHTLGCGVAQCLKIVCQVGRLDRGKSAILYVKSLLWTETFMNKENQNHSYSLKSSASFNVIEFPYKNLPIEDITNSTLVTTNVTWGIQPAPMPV
# T5 sequence (P18564 22-707 limits assumed, chain 2 of 2): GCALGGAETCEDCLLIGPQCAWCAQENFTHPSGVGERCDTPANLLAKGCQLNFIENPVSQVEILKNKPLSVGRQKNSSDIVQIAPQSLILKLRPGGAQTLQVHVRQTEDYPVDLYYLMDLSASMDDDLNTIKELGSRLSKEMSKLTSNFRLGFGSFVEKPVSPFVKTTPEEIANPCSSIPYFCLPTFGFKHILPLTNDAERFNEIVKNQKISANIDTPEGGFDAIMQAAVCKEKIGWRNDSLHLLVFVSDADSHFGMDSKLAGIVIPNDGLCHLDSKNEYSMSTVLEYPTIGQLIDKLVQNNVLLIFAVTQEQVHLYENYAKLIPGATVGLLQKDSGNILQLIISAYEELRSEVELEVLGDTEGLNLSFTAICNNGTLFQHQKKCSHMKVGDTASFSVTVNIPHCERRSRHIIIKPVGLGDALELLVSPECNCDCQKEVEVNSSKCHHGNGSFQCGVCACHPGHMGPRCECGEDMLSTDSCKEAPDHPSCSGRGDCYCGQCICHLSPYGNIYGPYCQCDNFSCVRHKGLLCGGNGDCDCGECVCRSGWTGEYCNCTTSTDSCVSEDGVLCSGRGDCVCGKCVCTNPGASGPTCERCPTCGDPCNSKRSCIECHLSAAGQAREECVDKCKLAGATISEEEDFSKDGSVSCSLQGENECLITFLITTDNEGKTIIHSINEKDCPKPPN
# T1 sequence (chain, as listed by the source limits assumed, chain 1 of 2): as the sequence (chain, as listed by the source limits assumed, chain 1 of 2) above
# T1 sequence (P05556 21-728 limits assumed, chain 2 of 2): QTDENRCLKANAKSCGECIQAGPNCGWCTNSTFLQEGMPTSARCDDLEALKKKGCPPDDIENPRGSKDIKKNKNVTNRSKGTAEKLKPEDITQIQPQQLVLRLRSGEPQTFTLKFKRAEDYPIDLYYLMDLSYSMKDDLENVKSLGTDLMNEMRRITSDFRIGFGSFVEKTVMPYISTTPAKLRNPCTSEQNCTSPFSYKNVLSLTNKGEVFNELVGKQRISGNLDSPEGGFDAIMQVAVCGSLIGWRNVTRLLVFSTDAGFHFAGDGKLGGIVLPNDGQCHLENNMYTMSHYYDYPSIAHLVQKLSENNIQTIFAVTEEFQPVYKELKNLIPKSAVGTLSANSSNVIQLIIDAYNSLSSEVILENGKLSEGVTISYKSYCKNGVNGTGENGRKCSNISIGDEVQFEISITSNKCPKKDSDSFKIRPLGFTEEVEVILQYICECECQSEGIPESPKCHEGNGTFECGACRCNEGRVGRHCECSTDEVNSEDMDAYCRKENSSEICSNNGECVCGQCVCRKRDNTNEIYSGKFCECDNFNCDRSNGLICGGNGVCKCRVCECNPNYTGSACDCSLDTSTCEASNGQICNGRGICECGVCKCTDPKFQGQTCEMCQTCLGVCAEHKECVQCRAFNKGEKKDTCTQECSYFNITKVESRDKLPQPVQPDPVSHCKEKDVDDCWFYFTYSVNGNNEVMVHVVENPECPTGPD
# T2 sequence (chain, as listed by the source limits assumed, chain 1 of 2): as the sequence (chain, as listed by the source limits assumed, chain 1 of 2) above
# T2 sequence (P05106 27-718 limits assumed, chain 2 of 2): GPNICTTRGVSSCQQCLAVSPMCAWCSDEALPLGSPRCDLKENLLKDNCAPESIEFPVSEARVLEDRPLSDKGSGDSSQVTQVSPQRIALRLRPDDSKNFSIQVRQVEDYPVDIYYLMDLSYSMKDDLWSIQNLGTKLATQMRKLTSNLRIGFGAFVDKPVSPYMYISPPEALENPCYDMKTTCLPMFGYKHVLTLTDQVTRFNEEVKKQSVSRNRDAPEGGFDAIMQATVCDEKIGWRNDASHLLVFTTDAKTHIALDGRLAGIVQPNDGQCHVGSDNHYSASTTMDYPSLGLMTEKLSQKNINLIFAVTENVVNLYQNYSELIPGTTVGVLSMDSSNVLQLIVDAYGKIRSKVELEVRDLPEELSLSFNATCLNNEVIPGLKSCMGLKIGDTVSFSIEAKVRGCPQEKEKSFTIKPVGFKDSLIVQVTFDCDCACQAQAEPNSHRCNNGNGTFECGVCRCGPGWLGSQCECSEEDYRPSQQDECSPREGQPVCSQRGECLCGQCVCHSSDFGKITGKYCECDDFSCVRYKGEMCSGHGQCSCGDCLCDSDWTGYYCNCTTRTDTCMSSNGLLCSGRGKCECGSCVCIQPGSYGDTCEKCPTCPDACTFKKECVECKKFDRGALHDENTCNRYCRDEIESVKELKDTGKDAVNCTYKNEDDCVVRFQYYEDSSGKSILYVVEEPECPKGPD
# T4 sequence (chain, as listed by the source limits assumed, chain 1 of 2): as the sequence (chain, as listed by the source limits assumed, chain 1 of 2) above
# T4 sequence (P18084 24-719 limits assumed, chain 2 of 2): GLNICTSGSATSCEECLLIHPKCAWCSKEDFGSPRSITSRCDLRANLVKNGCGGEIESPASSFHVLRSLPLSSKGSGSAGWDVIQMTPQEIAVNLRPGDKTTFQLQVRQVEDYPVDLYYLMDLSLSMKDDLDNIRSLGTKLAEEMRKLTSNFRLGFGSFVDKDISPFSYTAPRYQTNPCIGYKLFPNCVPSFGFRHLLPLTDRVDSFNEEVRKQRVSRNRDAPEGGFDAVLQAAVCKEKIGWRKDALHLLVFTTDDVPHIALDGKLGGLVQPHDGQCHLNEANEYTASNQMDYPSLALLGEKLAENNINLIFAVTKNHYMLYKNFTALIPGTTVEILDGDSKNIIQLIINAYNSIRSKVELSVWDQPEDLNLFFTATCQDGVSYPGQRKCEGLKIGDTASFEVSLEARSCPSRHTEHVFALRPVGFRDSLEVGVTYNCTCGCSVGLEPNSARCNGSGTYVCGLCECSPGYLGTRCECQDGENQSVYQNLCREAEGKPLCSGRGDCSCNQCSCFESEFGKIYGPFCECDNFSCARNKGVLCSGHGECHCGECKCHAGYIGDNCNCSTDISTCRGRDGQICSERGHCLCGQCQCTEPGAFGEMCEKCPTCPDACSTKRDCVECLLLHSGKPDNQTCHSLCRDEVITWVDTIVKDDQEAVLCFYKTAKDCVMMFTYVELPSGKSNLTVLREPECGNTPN
# T3 sequence (P06756 31-992 limits assumed, chain 1 of 2): as the sequence (chain, as listed by the source limits assumed, chain 1 of 2) above
# T3 sequence (P26012 43-684 limits assumed, chain 2 of 2): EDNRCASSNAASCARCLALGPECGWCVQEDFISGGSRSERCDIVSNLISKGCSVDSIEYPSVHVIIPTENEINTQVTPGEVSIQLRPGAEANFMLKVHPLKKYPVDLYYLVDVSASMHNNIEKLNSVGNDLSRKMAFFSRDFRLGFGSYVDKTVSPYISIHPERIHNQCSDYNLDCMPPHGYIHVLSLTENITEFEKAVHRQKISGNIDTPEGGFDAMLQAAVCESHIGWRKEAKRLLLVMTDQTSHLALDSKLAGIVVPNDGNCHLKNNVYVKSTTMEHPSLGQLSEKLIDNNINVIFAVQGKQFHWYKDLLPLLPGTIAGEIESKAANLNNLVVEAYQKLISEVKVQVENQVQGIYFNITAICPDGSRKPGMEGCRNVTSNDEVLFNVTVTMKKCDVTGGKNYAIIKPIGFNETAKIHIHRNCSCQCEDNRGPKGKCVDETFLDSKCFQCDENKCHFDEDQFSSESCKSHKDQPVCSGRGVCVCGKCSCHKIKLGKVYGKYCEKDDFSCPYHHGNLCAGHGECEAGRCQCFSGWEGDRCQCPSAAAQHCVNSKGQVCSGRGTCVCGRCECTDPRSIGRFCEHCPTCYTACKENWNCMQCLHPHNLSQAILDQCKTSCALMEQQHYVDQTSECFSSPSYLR
Binder,binding result [1],binding result [2],binding result [3],binding result [4],binding intensity score (0-4) [5],binding intensity score (0-4) [6],binding intensity score (0-4) [7],binding result [8]
"C6 VH / RGD3-10 Vk murine IgG (antibody, V domains shown, Murine IgG, supernatant of 293 cells; CDRL1 swap into the C6D4 murine IgG vector, VH not altered; also called C6RGD3-10) VH: QIQLLQSGPELKKPGETVKISCKASGYTFTDYSMHWVKQAPGKGLKWVARINTETGEPTFADDFRGRFAVSLETSASTAYLQINNLKNEDTATYFCAIFYYGRDSWGQGTTLTVSS VL: DIVMTQSPSSLAVSAGEKVTMSCKSSQSLLGRGDLGRLKKQKDHWYQQKPGQSPRLLIYWASTRESGVPDRFTGSGSGTDFTLTISSVQAEDLAVYYCKQSYNLLSFGAGTKLELKR",no binding (tested: supernatant at 1/10 dilution),no binding (tested: supernatant at 1/10 dilution),no binding (tested: supernatant at 1/10 dilution),no binding (tested: supernatant at 1/10 dilution),1 score 0-4,,,
"C6 VH / RGD3-8 Vk murine IgG (antibody, V domains shown, Murine IgG, supernatant of 293 cells; CDRL1 swap into the C6D4 murine IgG vector, VH not altered; also called C6RGD3-8) VH: QIQLLQSGPELKKPGETVKISCKASGYTFTDYSMHWVKQAPGKGLKWVARINTETGEPTFADDFRGRFAVSLETSASTAYLQINNLKNEDTATYFCAIFYYGRDSWGQGTTLTVSS VL: DIVMTQSPSSLAVSAGEKVTMSCKSSQSLLGRGDLGRNALAWYQQKPGQSPRLLIYWASTRESGVPDRFTGSGSGTDFTLTISSVQAEDLAVYYCKQSYNLLSFGAGTKLELKR",no binding (tested: supernatant at 1/10 dilution),,,no binding (tested: supernatant at 1/10 dilution),3 score 0-4,3 score 0-4,3 score 0-4,
"C6 VH / RGD3-1 Vk murine IgG (antibody, V domains shown, Murine IgG, supernatant of 293 cells; CDRL1 swap into the C6D4 murine IgG vector, VH not altered; also called C6RGD3-1) VH: QIQLLQSGPELKKPGETVKISCKASGYTFTDYSMHWVKQAPGKGLKWVARINTETGEPTFADDFRGRFAVSLETSASTAYLQINNLKNEDTATYFCAIFYYGRDSWGQGTTLTVSS VL: DIVMTQSPSSLAVSAGEKVTMSCKSSQSLLGRGDLGRLKKQKDHNALAWYQQKPGQSPRLLIYWASTRESGVPDRFTGSGSGTDFTLTISSVQAEDLAVYYCKQSYNLLSFGAGTKLELKR",no binding (tested: supernatant at 1/10 dilution),no binding (tested: supernatant at 1/10 dilution),,no binding (tested: supernatant at 1/10 dilution),4 score 0-4,,1 score 0-4,
"C6 VH / RGD3-7 Vk murine IgG (antibody, V domains shown, Murine IgG, supernatant of 293 cells; CDRL1 swap into the C6D4 murine IgG vector, VH not altered; also called C6RGD3-7) VH: QIQLLQSGPELKKPGETVKISCKASGYTFTDYSMHWVKQAPGKGLKWVARINTETGEPTFADDFRGRFAVSLETSASTAYLQINNLKNEDTATYFCAIFYYGRDSWGQGTTLTVSS VL: DIVMTQSPSSLAVSAGEKVTMSCKSSQSLLGRGDLGRLNALAWYQQKPGQSPRLLIYWASTRESGVPDRFTGSGSGTDFTLTISSVQAEDLAVYYCKQSYNLLSFGAGTKLELKR",no binding (tested: supernatant at 1/10 dilution),,,no binding (tested: supernatant at 1/10 dilution),2 score 0-4,4 score 0-4,2 score 0-4,
"C6 VH / RGD3-6 Vk murine IgG (antibody, V domains shown, Murine IgG, supernatant of 293 cells; CDRL1 swap into the C6D4 murine IgG vector, VH not altered; also called C6RGD3-6) VH: QIQLLQSGPELKKPGETVKISCKASGYTFTDYSMHWVKQAPGKGLKWVARINTETGEPTFADDFRGRFAVSLETSASTAYLQINNLKNEDTATYFCAIFYYGRDSWGQGTTLTVSS VL: DIVMTQSPSSLAVSAGEKVTMSCKSSQSLLGRGDLGRLKNALAWYQQKPGQSPRLLIYWASTRESGVPDRFTGSGSGTDFTLTISSVQAEDLAVYYCKQSYNLLSFGAGTKLELKR",no binding (tested: supernatant at 1/10 dilution),no binding (tested: supernatant at 1/10 dilution),,no binding (tested: supernatant at 1/10 dilution),4 score 0-4,,4 score 0-4,
"C6 VH / RGD3-4 Vk murine IgG (antibody, V domains shown, Murine IgG, supernatant of 293 cells; CDRL1 swap into the C6D4 murine IgG vector, VH not altered; also called C6RGD3-4) VH: QIQLLQSGPELKKPGETVKISCKASGYTFTDYSMHWVKQAPGKGLKWVARINTETGEPTFADDFRGRFAVSLETSASTAYLQINNLKNEDTATYFCAIFYYGRDSWGQGTTLTVSS VL: DIVMTQSPSSLAVSAGEKVTMSCKSSQSLLGRGDLGRLKKQNALAWYQQKPGQSPRLLIYWASTRESGVPDRFTGSGSGTDFTLTISSVQAEDLAVYYCKQSYNLLSFGAGTKLELKR",no binding (tested: supernatant at 1/10 dilution),no binding (tested: supernatant at 1/10 dilution),,no binding (tested: supernatant at 1/10 dilution),4 score 0-4,,4 score 0-4,
"C6 VH / RGD3-3 Vk murine IgG (antibody, V domains shown, Murine IgG, supernatant of 293 cells; CDRL1 swap into the C6D4 murine IgG vector, VH not altered; also called C6RGD3-3) VH: QIQLLQSGPELKKPGETVKISCKASGYTFTDYSMHWVKQAPGKGLKWVARINTETGEPTFADDFRGRFAVSLETSASTAYLQINNLKNEDTATYFCAIFYYGRDSWGQGTTLTVSS VL: DIVMTQSPSSLAVSAGEKVTMSCKSSQSLLGRGDLGRLKKQKNALAWYQQKPGQSPRLLIYWASTRESGVPDRFTGSGSGTDFTLTISSVQAEDLAVYYCKQSYNLLSFGAGTKLELKR",no binding (tested: supernatant at 1/10 dilution),no binding (tested: supernatant at 1/10 dilution),,no binding (tested: supernatant at 1/10 dilution),4 score 0-4,,4 score 0-4,
"C6 VH / RGD3-2 Vk murine IgG (antibody, V domains shown, Murine IgG, supernatant of 293 cells; CDRL1 swap into the C6D4 murine IgG vector, VH not altered; also called C6RGD3-2) VH: QIQLLQSGPELKKPGETVKISCKASGYTFTDYSMHWVKQAPGKGLKWVARINTETGEPTFADDFRGRFAVSLETSASTAYLQINNLKNEDTATYFCAIFYYGRDSWGQGTTLTVSS VL: DIVMTQSPSSLAVSAGEKVTMSCKSSQSLLGRGDLGRLKKQKDNALAWYQQKPGQSPRLLIYWASTRESGVPDRFTGSGSGTDFTLTISSVQAEDLAVYYCKQSYNLLSFGAGTKLELKR",no binding (tested: supernatant at 1/10 dilution),no binding (tested: supernatant at 1/10 dilution),,no binding (tested: supernatant at 1/10 dilution),4 score 0-4,,4 score 0-4,
"C6 VH / RGD3-12 Vk murine IgG (antibody, V domains shown, Murine IgG, supernatant of 293 cells; CDRL1 swap into the C6D4 murine IgG vector, VH not altered; also called C6RGD3-12) VH: QIQLLQSGPELKKPGETVKISCKASGYTFTDYSMHWVKQAPGKGLKWVARINTETGEPTFADDFRGRFAVSLETSASTAYLQINNLKNEDTATYFCAIFYYGRDSWGQGTTLTVSS VL: DIVMTQSPSSLAVSAGEKVTMSCKSSQSLLGRGDLGRLKKQKWYQQKPGQSPRLLIYWASTRESGVPDRFTGSGSGTDFTLTISSVQAEDLAVYYCKQSYNLLSFGAGTKLELKR",no binding (tested: supernatant at 1/10 dilution),,no binding (tested: supernatant at 1/10 dilution),no binding (tested: supernatant at 1/10 dilution),2 score 0-4,1 score 0-4,,
"C6 VH / RGD3-9 Vk murine IgG (antibody, V domains shown, Murine IgG, supernatant of 293 cells; CDRL1 swap into the C6D4 murine IgG vector, VH not altered; also called C6RGD3-9) VH: QIQLLQSGPELKKPGETVKISCKASGYTFTDYSMHWVKQAPGKGLKWVARINTETGEPTFADDFRGRFAVSLETSASTAYLQINNLKNEDTATYFCAIFYYGRDSWGQGTTLTVSS VL: DIVMTQSPSSLAVSAGEKVTMSCKSSQSLLGRGDLGRLKKQKDHHWYQQKPGQSPRLLIYWASTRESGVPDRFTGSGSGTDFTLTISSVQAEDLAVYYCKQSYNLLSFGAGTKLELKR",no binding (tested: supernatant at 1/10 dilution),no binding (tested: supernatant at 1/10 dilution),no binding (tested: supernatant at 1/10 dilution),no binding (tested: supernatant at 1/10 dilution),3 score 0-4,,,
"clone 44 (scFv, yeast display) (scFv, V domains shown, scFv on yeast) VH: QIQLLQSGPELKKPGETVKISCKASGYTFTDYSMHWVKQAPGKGLKWVARINTETGEPTFADDFRGRFAVSLETSASTAYLQINNLKNEDTATYFCAIYYYGRDSWGQGTTLTVSS VL: DIVMSQSPSSLAVSAGEKVTMSCKSSQSLLNSRTRKNYLAWYQQKPGQSPRLLIYWASTRESGVPDRFTGSGSGTDFTLTISSVQDEDLAVYYCKQSYNLLTFGAGTKLELKA",,,,,,,,binds
"C6 VH / RGD3-11 Vk murine IgG (antibody, V domains shown, Murine IgG, supernatant of 293 cells; CDRL1 swap into the C6D4 murine IgG vector, VH not altered; also called C6RGD3-11) VH: QIQLLQSGPELKKPGETVKISCKASGYTFTDYSMHWVKQAPGKGLKWVARINTETGEPTFADDFRGRFAVSLETSASTAYLQINNLKNEDTATYFCAIFYYGRDSWGQGTTLTVSS VL: DIVMTQSPSSLAVSAGEKVTMSCKSSQSLLGRGDLGRLKKQKDWYQQKPGQSPRLLIYWASTRESGVPDRFTGSGSGTDFTLTISSVQAEDLAVYYCKQSYNLLSFGAGTKLELKR",no binding (tested: supernatant at 1/10 dilution),no binding (tested: supernatant at 1/10 dilution),,no binding (tested: supernatant at 1/10 dilution),2 score 0-4,,1 score 0-4,
"clone 29 (scFv, yeast display) (scFv, V domains shown, scFv on yeast) VH: QIQLLQSGPELKKPGETVKISCKASGYTFTDYSMHWVKQAPGKGLKWVARINTETGEPTFADDFRGRFAVSLETSASTAYLQINNLKNEDTATYFCAIYYYGRDSWGQGTTLTVSS VL: DIVMSQSPSSLAVSAGEKVTMSCKSSQSLLNSRTRKNYLAWYQQKPGQSPRLLIYWASTRESGVPDRFTGSGSGTDFTLTISSVQAEDLAVYYCKQSYNLLTFGAGTKLELKA",,,,,,,,binds
